Experiments:
Romney ewes [1] = experiment: Trial 2: bromocriptine treatment of winter-lambing Romney ewes (plasma prolactin, wool growth, lambs); assay type: in vivo, sheep; details: bromocriptine given to pregnant ewes before or after parturition
Procedure: Natural and experimental changes in plasma prolactin concentration and their effects on wool production in winter-lambing Romney ewes were measured.
Fourteen non-pregnant and 29 pregnant ewes were maintained indoors from early April 1995 for 12 months under controlled photoperiod and controlled dietary intake. Two groups (n=8) were held under long day photoperiod (16L:8D; LD non-pregnant and LD-lambed) while 2 others were exposed to natural photoperiod (ND non-pregnant, n=6 and ND-lambed, n=7). Two further groups (n=7) of pregnant ewes housed in natural days were treated with bromocriptine, either from 1 week before parturition (ND-BrB) or 1-3 days after parturition (ND-BrA), to suppress prolactin secretion.
Lambing occurred between 12 and 18 June. Plasma prolactin, mean fibre diameter and wool growth were measured at regular intervals and the results were plotted in FIG. 3.

Romney ewes [2] = assay type: in vivo, sheep
Source text: The effects of two methods of administration of exogenous prolactin on wool growth were examined.
Forty-three mixed age Romney ewes were maintained indoors in individual pens from April until October, and fed to maintain a constant maternal live weight (independent of conceptus and fleece weights). A control group (ND non-pregnant) was not mated (n=8). Thirty-five other ewes (comprising Groups 2-5) were mated in April. Groups 1-4 were maintained in natural photoperiod while Group 5 (LD-lambed, n=10) was subjected to long days (16L:8D) from 1 week after mating for the duration of the trial (ie 18 days).
An ovine prolactin pituitary extract (0.80 mg/kg/day) was administered by either daily subcutaneous injection to sheep of Group 3 (PRL-INJ, n=10) or by intravenous infusion via a jugular cannula to sheep of Group 4 (PRL-INF, n=2) (from one week after mating for a temporary period of 18 days).
(§1) The sheep were shorn on entry to the experiment and again at the conclusion of the experiment in late September and a mid-side wool sample was measured for fibre diameter and yield. Wool samples were clipped from a standardised 100×100 mm mid-side patch on the right side of each ewe at monthly intervals to determine changes in seasonal clean wool production and mean fibre diameter. Wool growth and plasma prolactin concentrations were measured at regular intervals and the results were plotted in FIGS. 4 and 5.

[3] = system: prolactin receptor long form gene expression; experiment: Trial 3: skin prolactin receptor long form gene expression by real-time PCR; assay type: in vivo, sheep
Procedure: Six midside skin biopsies were collected at intervals between April and June for measurement of prolactin receptor long form gene expression by real-time PCR and the results are plotted in FIG. 6. An assay for the short form of the ovine prolactin receptor was also developed, but results are not presented since only very low levels of expression were detected.
(§2) The relative expression of prolactin receptor mRNA was measured using Taqman real-time PCR (Applied Biosystems). RNA was extracted from skin samples using TRIzol reagent according to manufactures protocol (Invitrogen). Total RNA was then quantified using RiboGreen reagent (Invitrogen) and all samples were standardized to a concentration of 0.5 μg/μl of total RNA. The reverse transcriptase reaction (Superscript II RT-PCR kit, Invitrogen) was used to generate single stranded cDNA from 0.5 μg of total RNA.
(§3) The primers and probes for the long form of the prolactin receptor were designed using the Primer Express program (Applied Biosystems).
(§4) The 18S ribosomal RNA pre-developed assay reagent (Applied Biosystems) was used as an internal control and the reactions were set up according to the manufacturers instructions. Data was analysed using the software provided by Applied Biosystems. Results on relative mRNA quantities were obtained by the standard curve method.

Romney ewes [4] = experiment: Trial 4: 3-, 9- or 18-day prolactin infusion, wool growth in pregnant Romney ewes; assay type: in vivo, sheep; details: for mean total patch weight (clean wool): 12-month trial
Procedure: Trial 4 was conducted to compare different periods of exogenous prolactin administration on wool growth.
Eighteen 3 year old Romney ewes were maintained indoors in individual pens under natural photoperiod for 12 months from March 2000. […] The ewes were fed to maintain a constant maternal live weight (independent of conceptus and fleece weights). A control group (ND non-pregnant) was not mated (n=6). Twelve other ewes (comprising Groups 2-4) were mated on 23 April.
An ovine prolactin pituitary extract (1.0 mg/kg/day) was administered by intravenous infusion via a jugular cannula commencing 11 days after mating (4 May) for temporary periods of either 3 days (Group 2, n=6), 9 days (Group 3, n=3) or 18 days (Group 4, n=3).
as §1, with “March 2001” for “late September”, “concentration” for “concentrations”, “7” for “4”, “8.” for “5.”

[5] = system: prolactin receptor long form gene expression; experiment: Trial 4: skin prolactin receptor long form gene expression by real-time PCR; assay type: in vivo, sheep
Procedure: as §2, §3, §4
Six midside skin biopsies were collected at intervals between April and June for measurement of prolactin receptor long form gene expression by real-time PCR and the results are plotted in FIG. 9.

[6] = Trial 5: plasma prolactin after two 9-day prolactin infusions in non-pregnant Romney ewes; assay type: in vivo, sheep; details: intravenous 1.0 mg/kg/day for 9 days
Procedure: (§5) Twenty-one, mixed age, non-pregnant Romney ewes were maintained indoors in individual pens from September 2001 until February 2002. The ewes were fed to maintain a constant live weight. They were divided into 3 groups: short day controls (n=7), short day prolactin infused (n=7) and normal day controls (n=7). An ovine prolactin pituitary extract (1.0 mg/kg/day) was administered to each ewe in the short day infused group by intravenous infusion via a jugular cannula commencing on 9 October for 9 days. A second 9-day prolactin infusion was administered to the same ewes commencing on 20 November, 33 days after the end of the first infusion.
Plasma prolactin concentrations were measured at regular intervals and ten midside skin biopsies were collected at intervals between October and December 2001 for measurement of prolactin receptor long form gene expression by real-time PCR. The results are plotted in FIG. 10.

[7] = system: prolactin receptor long form gene expression; experiment: Trial 5: skin prolactin receptor long form gene expression by real-time PCR; assay type: in vivo, sheep
Procedure: as §2, §5
Plasma prolactin concentrations were measured at regular intervals and ten midside skin biopsies were collected at intervals between October and December 2001 for measurement of prolactin receptor long form gene expression by real-time PCR. […]

[8] = Trial 6: plasma prolactin after 9-day prolactin infusion in pregnant Romney or Wiltshire ewes; assay type: in vivo, sheep; details: infusion 40 mg/day for 9 days, pregnant ewes in short days
Procedure: (§6) Four groups, each comprised of seven 1-2 year old Romney or Wiltshire ewes were shorn and maintained indoors in individual pens from March until November 2002. The animals were fed to maintain a constant maternal live weight (independent of conceptus and fleece weights). The ewes were mated in March, and maintained in short days (8L:16D). Half of the ewes were cannulated and infusions of prolactin (40 mg/day) for 9 days commenced one week after mating. Blood samples and skin biopsies were collected from all ewes at intervals to monitor plasma prolactin and skin prolactin receptor gene expression respectively. The results are plotted in FIG. 11.

[9] = system: prolactin receptor gene expression; experiment: Trial 6: skin prolactin receptor gene expression in Romney or Wiltshire ewes; assay type: in vivo, sheep; details: Wiltshire ewes treated in April, P<0.05
Procedure: as §6

[10] = system: prolactin receptor gene expression; experiment: Trial 8: prolactin receptor gene expression in mice mammary gland; assay type: in vivo; details: 3-day infused group, days 7 and 14, P<0.05
Procedure: Swiss female mice were maintained in cages at a constant temperature of 22 C., under a photoperiod regime of 14 hours light: 10 hours dark, fed a diet of formulated mouse pellets ad libitum with access to fresh tap water. At 21 days of age, subcutaneous implants releasing 250 μg/day of bromocriptine over 60 days (Cat. Number SC-231; Innovative Research of America Inc.) were inserted under anaesthetic. At the same time, the mice received a slow release 100 μl osmotic pump (Alzet Model 1007D; Alza Corporation, Palo Alto, Calif.) delivering ovine prolactin (400 μg/day) for either 3 or 7 days. Mice were sacrificed in groups of 3 at intervals before, during and after prolactin administration. They were anaesthetised using CO2 and blood sampled by heart puncture, prior to euthanasia by cervical dislocation. The blood was centrifuged and the plasma stored at −20 C. by radioimmunoassay for ovine prolactin. The mammary glands were dissected from each mouse and snap frozen in liquid nitrogen prior to assay by real-time PCR for prolactin receptor gene expression. The results are plotted in FIG. 13.

prolactin receptor = details: cited from earlier work
rabbits = details: bromocriptine-treated rabbits, single injection of 3 mg of prolactin; cited from earlier work
sheep = sheep held in darkness, infusion of prolactin; cited from earlier work
cows = details: infusions of exogenous bovine prolactin; cited from earlier work
[11] = model parameter from literature

With `CC(C)C[C@H]1C(=O)N2CCC[C@H]2[C@]2(O)O[C@](NC(=O)[C@@H]3C=C4c5cccc6[nH]c(Br)c(c56)C[C@H]4N(C)C3)(C(C)C)C(=O)N12` [bromocriptine] the “birth weight or live weight changes of lambs” value (Romney ewes [1]) was “did not affect”.

B1: prolactin: ovine prolactin pituitary extract; peptide hormone of approximately 200 amino acids, given by infusion, injection or osmotic pump (protein, UniProt P01240 31-229, looked up)
Prolactin: TPVCPNGPGNCQVSLRDLFDRAVMVSHYIHNLSSEMFNEFDKRYAQGKGFITMALNSCHTSSLPTPEDKEQAQQTHHEVLMSLILGLLRSWNDPLYHLVTEVRGMKGVPDAILSRAIEIEEENKRLLEGMEMIFGQVIPGAKETEPYPVWSGLPSLQTKDEDARHSAFYNLLHCLRRDSSKIDTYLKLLNCRIIYNNNC
modifications: pituitary extract
With B1 the “mean clean fleece weight” value (Romney ewes [2]; PRL-INF, 6-month trial, ND-lambed controls 1.23 kg, SEM ±0.13 kg, P<0.01) was 1.63 kg, the “increase in mean fibre diameter” value (Romney ewes [2]; PRL-INF, by September, P=0.05) was 2 μm and the “decline in clean wool growth rate” value (Romney ewes [2]; PRL-INF, intravenous infusion 18 days, n=2, May and throughout pregnancy) was “arrested in May and remained high”. For the same molecule, the “September clean wool growth rate relative to untreated ND-lambed ewes” value (Romney ewes [2]; PRL-INF, intravenous infusion, P<0.001) was “approximately twice”, the “mean fibre diameter relative to ND-lambed controls” value (Romney ewes [2]; PRL-INJ, P<0.10) was “appeared to be lower” and the “September clean wool growth vs untreated ND-lambed ewes” value (Romney ewes [2]; PRL-INJ, daily subcutaneous injection, P<0.05) was “lower”. The “decline in clean wool growth rate compared to pregnant controls” value (Romney ewes [2]; daily subcutaneous injections 0.8 mg/kg/day (PRL-INJ)) was “no initial effect”, the “prolactin receptor gene expression, differences between remaining treatment groups” value ([3]; PRL-INJ (injected) among remaining groups, over the trial) was “no significant differences” and the “duration of high level of receptor expression vs untreated ewes” value ([3]; infused ewes, April to June, P<0.05) was “sustained for two months”. For the same molecule, the “prolactin receptor gene expression compared to other treatment groups” value ([3]; infused ewes, during and after the 18 day infusion, P<0.01) was “significantly elevated”, the “mean total patch weight (clean wool)” value (Romney ewes [4]; 3-day infusion) was 0.74 g and the “clean patch wool growth vs 3-day and 18-day infused groups” value (Romney ewes [4]; 9-day infusion 1.0 mg/kg/day, during May) was “higher wool growth”. For the same molecule, the “mean total patch weight (clean wool)” value (Romney ewes [4]; 9-day infusion) was 0.91 g, the “mean fibre diameter difference vs other infused groups” value (Romney ewes [4]; 9-day infusion, July) was “approximately 3 μm” and the “wool growth rate vs other infused groups” value (Romney ewes [4]; 9-day infusion, July, P<0.01, persisted until November) was “higher than either of the other infused groups”. For the same molecule, the “mean fibre diameter vs 3-day infused group” value (Romney ewes [4]; 9-day infusion, June, P<0.01) was “significantly higher”, the “mean total patch weight (clean wool)” value (Romney ewes [4]; 18-day infusion) was 0.66 g and the “prolactin receptor gene expression following commencement of infusions” value ([5]; 3-day infusion group) was “all groups except the 3-day group”. For the same molecule, the “prolactin receptor gene expression following commencement of infusions” value ([5]; 9-day and 18-day infusion groups) was “dropped significantly”, the “prolactin receptor gene expression following termination of infusions” value ([5]; all infused groups, not statistically significant) was “rose” and the “plasma prolactin levels on termination of the infusions” value [6] was “fell rapidly to baselines levels”. For the same molecule, the “plasma prolactin levels during infusion” value ([6]; short day ewes) was “approximately 500 ng/ml”, the “prolactin receptor gene expression” value ([7]; first 9-day infusion, P<0.01) was “elevated” and the “prolactin receptor gene expression” value ([7]; second 9-day infusion, P<0.02) was “elevated”. For the same molecule, the “plasma prolactin levels during prolactin administration” value [8] was “approximately 500 ng/ml”, the “prolactin receptor gene expression in September vs non-treated Wiltshire ewes” value [9] was “increase” and the “prolactin receptor gene expression vs control group and 7-day infused group” value [10] was “elevated”. For the same molecule, the “α, rate of formation of dimer complex” value (prolactin receptor; model parameter from literature [Gertler et al., 1996]) was 48000 M⁻¹ s⁻¹, the “d12, dissociation rate of hormone-receptor complex” value (prolactin receptor; [11]) was 4717.4 day⁻¹ and the “d, dissociation rate of hormone-receptor complex” value (prolactin receptor; [11]) was 12.96 day⁻¹. The “α1, rate of formation of trimer complex” value (prolactin receptor; [11]) was 35000 M⁻¹ s⁻¹, the “γ, clearance rate constant of plasma prolactin” value (prolactin receptor; [11]) was 35.6 day⁻¹ and the “recovery in milk yield” value (rabbits) was “accelerated”. The nitrogen retention (sheep) was “increases”.

B2: bovine prolactin: exogenous bovine prolactin infused in cows (literature) (protein, UniProt P01239 31-229, looked up)
Prolactin: TPVCPNGPGNCQVSLRDLFDRAVMVSHYIHDLSSEMFNEFDKRYAQGKGFITMALNSCHTSSLPTPEDKEQAQQTHHEVLMSLILGLLRSWNDPLYHLVTEVRGMKGAPDAILSRAIEIEEENKRLLEGMEMIFGQVIPGAKETEPYPVWSGLPSLQTKDEDARYSAFYNLLHCLRRDSSKIDTYLKLLNCRIIYNNNC
For B2, the “bromocriptine-induced reductions in milk yield” value (cows) is given as “can prevent”.
